The results in this text go back to IntAct's records for PubMed 18188153.

B1: Glutamate receptor 4 (Rattus norvegicus (Rat)), P19493 (parent)
chain: MRIICRQIVLLFSGFWGLAMGAFPSSVQIGGLFIRNTDQEYTAFRLAIFLHNTSPNASEAPFNLVPHVDNIETANSFAVTNAFCSQYSRGVFAIFGLYDKRSVHTLTSFCSALHISLITPSFPTEGESQFVLQLRPSLRGALLSLLDHYEWNCFVFLYDTDRGYSILQAIMEKAGQNGWHVSAICVENFNDVSYRQLLEELDRRQEKKFVIDCEIERLQNILEQIVSVGKHVKGYHYIIANLGFKDISLERFIHGGANVTGFQLVDFNTPMVTKLMDRWKKLDQREYPGSETPPKYTSALTYDGVLVMAETFRSLRRQKIDISRRGNAGDCLANPAAPWGQGIDMERTLKQVRIQGLTGNVQFDHYGRRVNYTMDVFELKSTGPRKVGYWNDMDKLVLIQDMPTLGNDTAAIENRTVVVTTIMESPYVMYKKNHEMFEGNDKYEGYCVDLASEIAKHIGIKYKIAIVPDGKYGARDADTKIWNGMVGELVYGKAEIAIAPLTITLVREEVIDFSKPFMSLGISIMIKKPQKSKPGVFSFLDPLAYEIWMCIVFAYIGVSVVLFLVSRFSPYEWHTEEPEDGKEGPSDQPPNEFGIFNSLWFSLGAFMQQGCDISPRSLSGRIVGGVWWFFTLIIISSYTANLAAFLTVERMVSPIESAEDLAKQTEIAYGTLDSGSTKEFFRRSKIAVYEKMWTYMRSAEPSVFTRTTAEGVARVRKSKGKFAFLLESTMNEYTEQRKPCDTMKVGGNLDSKGYGVATPKGSSLGNAVNLAVLKLNEQGLLDKLKNKWWYDKGECGSGGGDSKDKTSALSLSNVAGVFYILVGGLGLAMLVALIEFCYKSRAEAKRMKLTFSEATRNKARLSITGSVGENGRVLTPDCPKAVHTGTAIRQSSGLAVIASDLP

Variants of B1 are the subject of this test. Conditions: with mk08_rat Mapk8, P49185.
Sequence of mk08_rat Mapk8, P49185 (P49185 whole entry): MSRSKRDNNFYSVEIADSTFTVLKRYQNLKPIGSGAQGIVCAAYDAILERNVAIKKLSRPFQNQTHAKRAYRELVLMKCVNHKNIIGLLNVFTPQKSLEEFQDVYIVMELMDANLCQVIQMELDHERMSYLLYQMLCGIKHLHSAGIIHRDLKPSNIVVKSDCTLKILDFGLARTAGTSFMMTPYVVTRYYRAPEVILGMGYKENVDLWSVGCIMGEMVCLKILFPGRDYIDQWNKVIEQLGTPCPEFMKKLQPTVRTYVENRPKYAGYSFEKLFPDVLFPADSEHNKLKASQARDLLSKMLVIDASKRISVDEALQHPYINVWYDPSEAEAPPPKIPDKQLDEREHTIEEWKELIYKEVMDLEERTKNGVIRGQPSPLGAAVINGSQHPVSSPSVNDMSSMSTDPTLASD
For the variant T855A, the “effect of a mutation on the interaction” value is listed as “disrupting interaction”.
